B1: Azoarcus group I ribozyme (parent)
chain: GUGCCUUGCGCCGGGAAACCACGCAAGGGAUGGUGUCAAAUUCGGCGAAACCUAAGCGCCCGCCCGGGCGUAUGGCAACGCCGAGCCAAGCUUCGGCGCCUGCGCCGAUGAAGGUGUAGAGACUAGACGGCACCCACCUAAGGCAAACGCUAUGGUGAAGGCAUAGUCCAGGGAGUGGCGAAAGUCACACAAACCGG

Variants of: B1
Experiment: reverse-splicing fitness (ratio to wild type); higher = more active; in vitro selection; Mg2+ level not given
Procedure, shortened: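 An in vitro group I ribozyme library with randomized positions was T7-transcribed and gel-purified. In triplicate, 10 pmol RNA in EPPS pH 7.5 was reacted with 50 pmoles of a 30-nt RNA substrate for 1 h at 37 °C across several added MgCl2 levels (1–48 mM), then stopped with EDTA. Products were reverse transcribed from a substrate-complementary primer, PCR-amplified and sequenced (HiSeq 4000). Fitness is a variant's read proportion after selection over that before, normalised to wild type.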

For C82U A111U A120U C169U U176G, which reverse-splicing fitness is on record?
The reverse-splicing fitness was 0.0019.

Which reverse-splicing fitness does the source give for C82U A111U A145G C150U U176A here?
The reverse-splicing fitness was 0.0765.

For C82U A111U A145G C150U U176C, which reverse-splicing fitness is on record?
Its reverse-splicing fitness is 0.12.

With C82U A111U A145G C150U U176G as the variant, how does the reverse-splicing fitness read?
The reverse-splicing fitness was 0.0188.

For C82U A111U A145G C150G C169G U176A, which reverse-splicing fitness is on record?
Its reverse-splicing fitness is 0.00984.

For C82U A111U A145G C150G C169G U176C, which reverse-splicing fitness is on record?
Its reverse-splicing fitness is 0.0116.

With C82U A111U A145G C150G C169G U176G as the variant, how does the reverse-splicing fitness read?
The reverse-splicing fitness was 0.00579.

With C82U A111U A120U C169U as the variant, how does the reverse-splicing fitness read?
Its reverse-splicing fitness is 0.00477.

With C82U A111U A120U C169A as the variant, how does the reverse-splicing fitness read?
Its reverse-splicing fitness is 0.00267.

With C82U A111U A120U C169G as the variant, how does the reverse-splicing fitness read?
Its reverse-splicing fitness is 0.00397.

With C82U A111U A145G C150G U176C as the variant, how does the reverse-splicing fitness read?
The reverse-splicing fitness was 0.0196.

With C82U A111U A145G C150G U176G as the variant, how does the reverse-splicing fitness read?
Its reverse-splicing fitness is 0.00676.

Which reverse-splicing fitness does the source give for C82U A111U A145G C150G U176A here?
The reverse-splicing fitness was 0.0103.

For C82U A111U A145G C169U U176A, which reverse-splicing fitness is on record?
The reverse-splicing fitness was 0.0135.

With C82U A111U A145G C169U U176C as the variant, how does the reverse-splicing fitness read?
Its reverse-splicing fitness is 0.0145.

With C82U A111U A145G C169U U176G as the variant, how does the reverse-splicing fitness read?
The reverse-splicing fitness was 0.0055.

For C82U A111U A145C C150A C169A U176C, which reverse-splicing fitness is on record?
Its reverse-splicing fitness is 0.00618.

For C82U A111U A145C C150A C169A U176G, which reverse-splicing fitness is on record?
Its reverse-splicing fitness is 0.00585.

Which reverse-splicing fitness does the source give for C82U A111U A145C C150A C169A U176A here?
The reverse-splicing fitness was 0.00998.

With C82U A111U A120U A145U C150G C169G U176G as the variant, how does the reverse-splicing fitness read?
The reverse-splicing fitness was 0.00209.

For C82U A111U A120U A145U C150G C169G U176A, which reverse-splicing fitness is on record?
Its reverse-splicing fitness is 0.0029.

For C82U A111U A120U A145U C150G C169G U176C, which reverse-splicing fitness is on record?
The reverse-splicing fitness was 0.00288.

With C82U A111U A120U A145U C150U C169A U176G as the variant, how does the reverse-splicing fitness read?
The reverse-splicing fitness was 0.00202.

With C82U A111U A120U A145U C150U C169A U176C as the variant, how does the reverse-splicing fitness read?
Its reverse-splicing fitness is 0.00275.

For C82U A111U A120U A145U C150U C169A U176A, which reverse-splicing fitness is on record?
Its reverse-splicing fitness is 0.00292.

Which reverse-splicing fitness does the source give for C82U A111U A120U C150U U176C here?
Its reverse-splicing fitness is 0.0088.

For C82U A111U A120U C150U U176G, which reverse-splicing fitness is on record?
The reverse-splicing fitness was 0.00363.

Which reverse-splicing fitness does the source give for C82U A111U A120U C150U U176A here?
The reverse-splicing fitness was 0.00668.

Which reverse-splicing fitness does the source give for C82U A111U A120U A145U C150A C169U here?
The reverse-splicing fitness was 0.00279.

Which reverse-splicing fitness does the source give for C82U A111U A120U A145U C150A C169A here?
Its reverse-splicing fitness is 0.00215.

With C82U A111U A120U A145U C150A C169G as the variant, how does the reverse-splicing fitness read?
Its reverse-splicing fitness is 0.00254.

Which reverse-splicing fitness does the source give for C82U A111U A120U A145U C150A C169U U176A here?
Its reverse-splicing fitness is 0.00233.

With C82U A111U A120U A145U C150A C169U U176C as the variant, how does the reverse-splicing fitness read?
The reverse-splicing fitness was 0.00234.

Which reverse-splicing fitness does the source give for C82U A111U A120U A145U C150A C169U U176G here?
Its reverse-splicing fitness is 0.00195.

With C82U A111U A145G C150A C169A U176G as the variant, how does the reverse-splicing fitness read?
Its reverse-splicing fitness is 0.00768.

With C82U A111U A145G C150A C169A U176A as the variant, how does the reverse-splicing fitness read?
The reverse-splicing fitness was 0.0186.

Which reverse-splicing fitness does the source give for C82U A111U A145G C150A C169A U176C here?
Its reverse-splicing fitness is 0.0216.

Which reverse-splicing fitness does the source give for C82U A111U A145U C150A C169G U176A here?
Its reverse-splicing fitness is 0.011.

For C82U A111U A145U C150A C169G U176C, which reverse-splicing fitness is on record?
Its reverse-splicing fitness is 0.0121.

With C82U A111U A145U C150A C169G U176G as the variant, how does the reverse-splicing fitness read?
Its reverse-splicing fitness is 0.00594.

With C82U A111U A120U A145U C150A C169A U176A as the variant, how does the reverse-splicing fitness read?
The reverse-splicing fitness was 0.00233.

For C82U A111U A120U A145U C150A C169A U176C, which reverse-splicing fitness is on record?
The reverse-splicing fitness was 0.00283.

For C82U A111U A120U A145U C150A C169A U176G, which reverse-splicing fitness is on record?
The reverse-splicing fitness was 0.00206.

For C82U A111U A145G C150G C169A U176G, which reverse-splicing fitness is on record?
The reverse-splicing fitness was 0.0074.

With C82U A111U A145G C150G C169A U176A as the variant, how does the reverse-splicing fitness read?
The reverse-splicing fitness was 0.0125.

With C82U A111U A145G C150G C169A U176C as the variant, how does the reverse-splicing fitness read?
Its reverse-splicing fitness is 0.0112.

Which reverse-splicing fitness does the source give for C82U A111U A120U A145U U176C here?
Its reverse-splicing fitness is 0.0111.

For C82U A111U A120U A145U U176A, which reverse-splicing fitness is on record?
The reverse-splicing fitness was 0.00758.

Which reverse-splicing fitness does the source give for C82U A111U A120U A145U U176G here?
The reverse-splicing fitness was 0.00339.

Which reverse-splicing fitness does the source give for C82U A111U A120U C150A C169U U176A here?
Its reverse-splicing fitness is 0.0059.

Which reverse-splicing fitness does the source give for C82U A111U A120U C150A C169U U176C here?
The reverse-splicing fitness was 0.00379.

For C82U A111U A120U C150A C169U U176G, which reverse-splicing fitness is on record?
The reverse-splicing fitness was 0.00301.

Which reverse-splicing fitness does the source give for C82U A111U A145U C150G here?
The reverse-splicing fitness was 0.028.

Which reverse-splicing fitness does the source give for C82U A111U A145U C150A here?
Its reverse-splicing fitness is 0.0273.

For C82U A111U A145U C150U, which reverse-splicing fitness is on record?
The reverse-splicing fitness was 0.183.

Which reverse-splicing fitness does the source give for C82U A111U A145U C150U C169G U176G here?
The reverse-splicing fitness was 0.00583.

For C82U A111U A145U C150U C169G U176A, which reverse-splicing fitness is on record?
Its reverse-splicing fitness is 0.0107.

Which reverse-splicing fitness does the source give for C82U A111U A145U C150U C169G U176C here?
Its reverse-splicing fitness is 0.0127.

With C82U A111U C150A C169G as the variant, how does the reverse-splicing fitness read?
Its reverse-splicing fitness is 0.00941.

With C82U A111U C150A C169A as the variant, how does the reverse-splicing fitness read?
Its reverse-splicing fitness is 0.00982.

For C82U A111U A120U A145U C169G U176A, which reverse-splicing fitness is on record?
Its reverse-splicing fitness is 0.00244.

For C82U A111U A120U A145U C169G U176C, which reverse-splicing fitness is on record?
The reverse-splicing fitness was 0.00286.

With C82U A111U A120U A145U C169G U176G as the variant, how does the reverse-splicing fitness read?
Its reverse-splicing fitness is 0.00176.

With C82U A111U A145U C150A U176C as the variant, how does the reverse-splicing fitness read?
Its reverse-splicing fitness is 0.022.

With C82U A111U A145U C150A U176A as the variant, how does the reverse-splicing fitness read?
The reverse-splicing fitness was 0.0154.

Which reverse-splicing fitness does the source give for C82U A111U A145U C150A U176G here?
Its reverse-splicing fitness is 0.00782.

For C82U A111U A120U A145U C150G C169U U176C, which reverse-splicing fitness is on record?
Its reverse-splicing fitness is 0.00272.

For C82U A111U A120U A145U C150G C169U U176A, which reverse-splicing fitness is on record?
The reverse-splicing fitness was 0.00242.

Which reverse-splicing fitness does the source give for C82U A111U A120U A145U C150G C169U U176G here?
The reverse-splicing fitness was 0.0024.

With C82U A111U A145G C150A C169A as the variant, how does the reverse-splicing fitness read?
The reverse-splicing fitness was 0.00979.

For C82U A111U A145G C150A C169U, which reverse-splicing fitness is on record?
The reverse-splicing fitness was 0.0105.

Which reverse-splicing fitness does the source give for C82U A111U A145G C150A C169G here?
The reverse-splicing fitness was 0.00847.

With C82U A111U A120U A145U C150U U176G as the variant, how does the reverse-splicing fitness read?
The reverse-splicing fitness was 0.00324.

With C82U A111U A120U A145U C150U U176C as the variant, how does the reverse-splicing fitness read?
Its reverse-splicing fitness is 0.00855.

For C82U A111U A120U A145U C150U U176A, which reverse-splicing fitness is on record?
Its reverse-splicing fitness is 0.00665.

Which reverse-splicing fitness does the source give for C82U A111U A145U C150G C169A U176C here?
Its reverse-splicing fitness is 0.00962.

For C82U A111U A145U C150G C169A U176G, which reverse-splicing fitness is on record?
The reverse-splicing fitness was 0.00684.

With C82U A111U A145U C150G C169A U176A as the variant, how does the reverse-splicing fitness read?
The reverse-splicing fitness was 0.0112.

Which reverse-splicing fitness does the source give for C82U A111U A145C C150U C169G U176C here?
Its reverse-splicing fitness is 0.0104.

With C82U A111U A145C C150U C169G U176G as the variant, how does the reverse-splicing fitness read?
The reverse-splicing fitness was 0.00575.

With C82U A111U A145C C150U C169G U176A as the variant, how does the reverse-splicing fitness read?
The reverse-splicing fitness was 0.0199.

With C82U A111U A120U A145G C169G U176G as the variant, how does the reverse-splicing fitness read?
The reverse-splicing fitness was 0.00146.

For C82U A111U A120U C150U C169A U176G, which reverse-splicing fitness is on record?
Its reverse-splicing fitness is 0.00205.
